According to the nanobody polyreactivity screen of Harvey et al. (2022):

Assay: yeast display, Sf9 membrane polyspecificity reagent, FACS + sequencing; frameworks hold sequencing errors
How it was run: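 Nanobodies from a synthetic yeast display library (Saccharomyces cerevisiae BJ5465), induced 36–48 hours with galactose, were stained 1 hour at 4 °C with 10% biotinylated, detergent-solubilized Sf9 membrane reagent, enriched on streptavidin microbeads, then FACS-sorted. Anti-HA (expression) and streptavidin (reagent binding) fluorescence set low and high (top ~1%) gates. Polyreactivity labels come from the gate of origin. Genes were colony-PCR amplified, MiSeq 2 × 250 sequenced and filtered by CDR length.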

Q: With “QVQLVESGGGLVQAGGSLRLSCAASGSTFGGNAMGWYRQAPGKERELVAAITIGGRTNYADSVKGRFTISRDNAKNTVYLQMNSLKPEDTAVYYCAKDRDQWQDYWGQGTQVTVSS” as the sequence, how does the “polyreactivity (PSR sort gate)” value read?
A: low polyreactivity

Q: For “QVQLVESGGGLVQAGGSLRLSCAASGSTFGGNAMGWYRQAPGKERELVASISDGGRTNYADSVKGRFTISRDNAKNTVYLQMNSLKPEDTAVYYCAADYAPVAFDYWGQGTQVTVSS”, which “polyreactivity (PSR sort gate)” value is on record?
A: low polyreactivity

Q: For “QVQLVESGGGLVQAGGSLRLSCAASGSTFGGNGMGWYRQAPGKKGSWVAAISWSGGSTYYADSVKGRFTISRDNAKNTVYLQMNSLKPEDTAVYYCAARTVYRGRAYDYWGQGTQVTVSS”, which “polyreactivity (PSR sort gate)” value is on record?
A: high polyreactivity

Q: For “QVQLVESGGGLVQAGGSLRLSCAASGSTFGGNVMGWYRPAPGKERELVATISRSGGSTYYADSVKGRFTISRDNAKNTVYLQMNSLKPEDTAVYYCAARTLHYSPSTFYRYQYDYWGQGTQVTVSS”, which “polyreactivity (PSR sort gate)” value is on record?
A: high polyreactivity

Q: Which “polyreactivity (PSR sort gate)” value does the source give for “QVQLVESGGGLVQAGGSLRLSCAASGSTFGGYAMGWYRQAPGKERELVAAISNGDRTNYADSVKGRFTISRDNAKNTVYLQMNSLKPEDTAVYYCATQPLTWSSYRWDWRAQFDHWGQGTQVTVSS” here?
A: low polyreactivity

Q: With “QVQLVESGGGLVQAGGSLRLSCAASGSTFGGYAMGWYRQAPGKERELVAAITYSGGSTYYADSVKGRFTISRDNAKNTVYLQMNSLKPEVTAVYYCNADDDDALPWWWPYVLDVDYWGQGTQVTVSS” as the sequence, how does the “polyreactivity (PSR sort gate)” value read?
A: low polyreactivity

Q: With “QVQLVESGGGLVQAGGSLRLSCAASGSTFGGYVMGWYRQAPGKERELVAAIRRVGRTYYADSVKGRFTISRDNAKNTVYLQMNSLKPEDTAVYYCAKDNWVNYDDSHDSWGQGTQVTVSS” as the sequence, how does the “polyreactivity (PSR sort gate)” value read?
A: low polyreactivity

Q: For “QVQLVESGGGLVQAGGSLRLSCAASGSTFGHYAMGWYRPAPGKERELVAVISRSGARTYYADSVKGRYTISRDNAKNTVYLQMNSLKPEDTAVYYCNAGPYGGNPFDYWGQGTQVTVSS”, which “polyreactivity (PSR sort gate)” value is on record?
A: high polyreactivity

Q: Which “polyreactivity (PSR sort gate)” value does the source give for “QVQLVESGGGLVQAGGSLRLSCAASGSTFGHYAMGWYRQAPGKERELVAAISWSGASTYYADSVKGRFTISRDNAKNTVYLQMNSLKPEDTAVYYCAAESYRQTYYVGDGYEDDYWGQGTQVTVSS” here?
A: low polyreactivity

Q: Which “polyreactivity (PSR sort gate)” value does the source give for “QVQLVESGGGLVQAGGSLRLSCAASGSTFGHYGMGWYRQAPGKERELVAAISYSGGSTSYADSVKGRFTISRDNAKNTVYLQMNSLKPEDTAVYYCATVRKRRYDYWGQGTQVTVSS” here?
A: low polyreactivity

Q: Which “polyreactivity (PSR sort gate)” value does the source give for “QVQLVESGGGLVQAGGSLRLSCAASGSTFGHYVMGWYRQATGKERELVAAISYNGGSTYYADSVKGRFTISRDNAKNTVYLQMNSLKPEDTAVYSCAARGSYSFYRRVDYWGQGTQVTVSS” here?
A: high polyreactivity

Q: With “QVQLVESGGGLVQAGGSLRLSCAASGSTFGKYAMGWYRQAPGKERELVAAITTGGNTSYADSVKGRFTISRDNANNTVYLQMNSLKPEDTAVYYCNAKRSFRVDYWGQGTQVTVSS” as the sequence, how does the “polyreactivity (PSR sort gate)” value read?
A: low polyreactivity

Q: With “QVQLVESGGGLVQAGGSLRLSCAASGSTFGKYAMGWYRQAPGKERELVAAITTGGNTYYADSVKGRFTISRDNAKNSVYLQMNSLKPEDTAVYYCNAKRSFRVDYWGQGTQVTVSS” as the sequence, how does the “polyreactivity (PSR sort gate)” value read?
A: low polyreactivity

Q: With “QVQLVESGGGLVQAGGSLRLSCAASGSTFGKYAMGWYRQAPGKERELVATITVSGGNTNYADSVKGRFTISRDNAKNTVYLQMNSLKPEDTAVYYCAARNYVAGHKYIMNYWGQGTQVNVSS” as the sequence, how does the “polyreactivity (PSR sort gate)” value read?
A: low polyreactivity

Q: Which “polyreactivity (PSR sort gate)” value does the source give for “QVQLVESGGGLVQAGGSLRLSCAASGSTFGLNAMGWYRQAPGKERELVAAISYSDTTTYYADSVKGRFTISRDNAKNTVYLQMNSLKPEDTAVYYCAAEGDYAFLYDYWGQGTQVTVSS” here?
A: high polyreactivity

Q: Which “polyreactivity (PSR sort gate)” value does the source give for “QVQLVESGGGLVQAGGSLRLSCAASGSTFGLYAMGWYIQAPGKERELVAAISSRGSRTYYADSVKGRFTISRDNAKNTVYLQLNSLIPEDTAVYYCNALYASSVRHKVTYDYWGQGTQVTVSS” here?
A: high polyreactivity

Q: For “QVQLVESGGGLVQAGGSLRLSCAASGSTFGLYAMGWYRQAPGKERELVAAISYNTGRTYYADSVKGRFTISRDNAKNTVYLQMNSLKPEDTAVYYCAAEYFIWSYTRYEYWGQGTQVTVSS”, which “polyreactivity (PSR sort gate)” value is on record?
A: high polyreactivity

Q: For “QVQLVESGGGLVQAGGSLRLSCAASGSTFGNNAMGWYRPAPGKERELVAGIRRSSNTYYADSVKGRFTISRDNAKNTVYLQMNSLKPEDTAVYCCNADNILYGSTLDYWGQGTQVTVSS”, which “polyreactivity (PSR sort gate)” value is on record?
A: low polyreactivity

Q: Which “polyreactivity (PSR sort gate)” value does the source give for “QVQLVESGGGLVQAGGSLRLSCAASGSTFGNYAMGWYRQAPGKERELVAAISTSGGSTYYADSVKRRFTISRDNAKNTVYLQMNSLKPEDTAVYYCAKRLVRVRSRAVSDYYWGQGTQVTVSS” here?
A: high polyreactivity

Q: With “QVQLVESGGGLVQAGGSLRLSCAASGSTFGNYAMGWYRQAPGKERELVAVITSAGSTYYADSVKGRFTISRDNAKNTVYLQMNSLKPDDTAVYYCNTGKHVRYYYWGQGTQVTVSS” as the sequence, how does the “polyreactivity (PSR sort gate)” value read?
A: low polyreactivity

Q: For “QVQLVESGGGLVQAGGSLRLSCAASGSTFGPNAMGWYRQAPGKERELVATITYSGGSTYYADSVKGRFTISRDNAKNTVYLQMNSLKPEDTAVYYCAAVYRYSRFTYGYWGQGTQVTVSS”, which “polyreactivity (PSR sort gate)” value is on record?
A: high polyreactivity

Q: Which “polyreactivity (PSR sort gate)” value does the source give for “QVQLVESGGGLVQAGGSLRLSCAASGSTFGPNPMGWYRQAPGKERELVAAISRAGRTYYADSVKGRFTISRDNAKNTVYLQMNSLKPEDTAVYYCNAGRSYHWRAGGEYDYWGQGTQVTVSS” here?
A: low polyreactivity

Q: Which “polyreactivity (PSR sort gate)” value does the source give for “QVQLVESGGGLVQAGGSLRLSCAASGSTFGPYAMGWYRQAPGKERELVAAISSGGSTYADSVKGRFTISRDNAKNTVYLQMNSLKPEDTAVYYCAKVHGRGVYSVEYDYWVQGTQVTVSS” here?
A: low polyreactivity

Q: Which “polyreactivity (PSR sort gate)” value does the source give for “QVQLVESGGGLVQAGGSLRLSCAASGSTFGPYAMGWYRQAPGKERELVAGISYGGGTTFYADSVKGRFTISRDNAKNTVYLQMNSLKPEDTAVYYCAATYRPNRYLEGYWGQGTQVTVSS” here?
A: high polyreactivity

Q: Which “polyreactivity (PSR sort gate)” value does the source give for “QVQLVESGGGLVQAGGSLRLSCAASGSTFGPYAMGWYRQAPGKERELVATINSSGSTNYADSVKGRFTISRDNAKNTVYLQMKSLKPEDTAVYYCATLHYYYWYDYWGQGTQVTVSS” here?
A: low polyreactivity

Q: Which “polyreactivity (PSR sort gate)” value does the source give for “QVQLVESGGGLVQAGGSLRLSCAASGSTFGPYAMGWYRQAPGKERELVATISGSRSSTYYADSVKGRFTISRDNAKNTVYLQMNSLKPEDTAVYYCATDLYFDLRYDYWGQGTQVTVSS” here?
A: low polyreactivity

Q: With “QVQLVESGGGLVQAGGSLRLSCAASGSTFGRNAMGWYRQAPGKERELVAAISWRSTRTYYADSVKGRFTISRDNAKNTVYLQMNSLKPEDTAVYYCAAAWRIWWYHRGEFDYWGQGTQVTVSS” as the sequence, how does the “polyreactivity (PSR sort gate)” value read?
A: high polyreactivity

Q: For “QVQLVESGGGLVQAGGSLRLSCAASGSTFGRNAMGWYRQAPGKERELVATITKSGGSTYYADSVKGRFTISRDNAKNTVYLQMNSLKPEDTAVYYCAKGVYYKVLRGGGDYWGQGTQVTVSS”, which “polyreactivity (PSR sort gate)” value is on record?
A: high polyreactivity

Q: Which “polyreactivity (PSR sort gate)” value does the source give for “QVQLVESGGGLVQAGGSLRLSCAASGSTFGRNTMGWYRQAPGKERELVAAITSGDTTTYADSVKGRFTISRDNAKNTVYLQMNSLKPEVTAVYYCAVDPVRGRDYSWMDYWGQGTQVTVSS” here?
A: low polyreactivity

Q: With “QVQLVESGGGLVQAGGSLRLSCAASGSTFGRYAMGWYRQAPGKEREFVAAISCSGGSTYYADSVKGRFTISRDNAKNTVYLQMNSLNPEDTAVYYWARYSWRGLAEFESWGQGTQVTVSS” as the sequence, how does the “polyreactivity (PSR sort gate)” value read?
A: low polyreactivity

Q: For “QVQLVESGGGLVQAGGSLRLSCAASGSTFGRYAMGWYRQAPGKERELFAAISWSGGSTYYADSVKGRFTISRDNAKNTVYLQMNSLKPEDTAVYYCNKAGIYIYGSYYWGQGTQVTVSS”, which “polyreactivity (PSR sort gate)” value is on record?
A: high polyreactivity

Q: Which “polyreactivity (PSR sort gate)” value does the source give for “QVQLVESGGGLVQAGGSLRLSCAASGSTFGRYAMGWYRQAPGKERELVAAITTSGGRTRYADSVKGRFTISRDNAKNPVYLQMNSLKPEDTAVYYCAASGAQGPDYDYWGQGTQVTVSS” here?
A: low polyreactivity

Q: For “QVQLVESGGGLVQAGGSLRLSCAASGSTFGRYAMGWYRQAPGKERELVATIDGSDGSTFYADSVKGRFTISRDNAKNTVYLQMNSLKPEDTAVYYCAAAWYDGYYYLVYYWGQGTQVTVSS”, which “polyreactivity (PSR sort gate)” value is on record?
A: low polyreactivity

Q: Which “polyreactivity (PSR sort gate)” value does the source give for “QVQLVESGGGLVQAGGSLRLSCAASGSTFGRYAMGWYRQAPGKESELVAAISSSGGRTYYADSVKGRFTISRDNAKNTVYLQMNSLKPEDTAVYYCAAPGAQGLGLRGAGLDYWGQGTQVTVSW” here?
A: high polyreactivity

Q: Which “polyreactivity (PSR sort gate)” value does the source give for “QVQLVESGGGLVQAGGSLRLSCAASGSTFGRYAMGWYRQATGKEMELVAAITRSGGRTYYADSVKGRFTISRDNAKNNVYLQMNSLKPEDTAVYYCAAVGNLYYTSHWQYDYWGQGTQVTVSS” here?
A: high polyreactivity

Q: For “QVQLVESGGGLVQAGGSLRLSCAASGSTFGRYTMGWYRQAPRKERELVAAITSGGGSTYYADSVKGRFTISRDNAKNTVYLQMNSLKPEDTAVYYCAARSLVQDHAYGYNYWGQGTQVTVSS”, which “polyreactivity (PSR sort gate)” value is on record?
A: low polyreactivity

Q: With “QVQLVESGGGLVQAGGSLRLSCAASGSTFGRYVMGWYRQAPGKERELVAAISKNAGSTYYADSVKGRFTISRDNAKNTVYLHMNSLKPEDTAVYYCAADWRTKGYDSLGQGTQVTVSS” as the sequence, how does the “polyreactivity (PSR sort gate)” value read?
A: high polyreactivity

Q: With “QVQLVESGGGLVQAGGSLRLSCAASGSTFGRYVMGWYRQAPGKERELVAAISKNAGSTYYADSVKGRFTISRDNAKNTVYLQMNRLKPEDTAVYYCAADWRTKGYDSLGQGTQVTVSS” as the sequence, how does the “polyreactivity (PSR sort gate)” value read?
A: high polyreactivity

Q: Which “polyreactivity (PSR sort gate)” value does the source give for “QVQLVESGGGLVQAGGSLRLSCAASGSTFGSNAMGWYRQAPGKERELVAAITNGGSTNYADSVKGRFTISRDNAKNTVYLQMHSLKPEDTAVYYCNADPQQSKLWTYFFGFPGYYWGQGTQVTVSS” here?
A: low polyreactivity

Q: Which “polyreactivity (PSR sort gate)” value does the source give for “QVQLVESGGGLVQAGGSLRLSCAASGSTFGSNAMGWYRQAPGKERELVAAITRRGGSTYYADSVKGRFTISRDKAKNTVYLQMNSLKPEDTAVYYCAAQIHPRRDYSAFDYWGQGTQVTVSS” here?
A: low polyreactivity

Q: With “QVQLVESGGGLVQAGGSLRLSCAASGSTFGSYAMGWYRQAPGKVRELVASIRSSGTSTYYADSVKGRFTISRDNAKNTVYLQMNSLKPEDTAVYYCAKRYFTWRSTYNYWGQGTQVTVSS” as the sequence, how does the “polyreactivity (PSR sort gate)” value read?
A: high polyreactivity

Q: For “QVQLVESGGGLVQAGGSLRLSCAASGSTFGSYAMGWYRQAPGTERELVAAISRAGSTYADSVKGRFTISRDNAKNTVYLQMHSLKPEDTAVYYCANRDNALYYGYDYWGQGTQVTVSS”, which “polyreactivity (PSR sort gate)” value is on record?
A: low polyreactivity

Q: For “QVQLVESGGGLVQAGGSLRLSCAASGSTFGSYTMGWYRQAPGKERELVAAINWSGGNTYYADSVKGRFTISRDNAKNTVYLQINSLKPEDTAVYYCAAAFYIYGVEGDYWGQGTQVTVSS”, which “polyreactivity (PSR sort gate)” value is on record?
A: low polyreactivity
